From US20190177408A1 (SUZHOU CONNECT BIOPHARMACEUTICALS, published 2019) come the findings set out here.

The target in the assay is T1, human soluble IL-4Rα (sIL-4Rα) (human, UniProt P24394 26-232).
T1 construct: Bought reagent (PEPRO TECH, Catalog Number 200-04R); also called shIL-4Rα; soluble hIL-4 Rα
T1 sequence: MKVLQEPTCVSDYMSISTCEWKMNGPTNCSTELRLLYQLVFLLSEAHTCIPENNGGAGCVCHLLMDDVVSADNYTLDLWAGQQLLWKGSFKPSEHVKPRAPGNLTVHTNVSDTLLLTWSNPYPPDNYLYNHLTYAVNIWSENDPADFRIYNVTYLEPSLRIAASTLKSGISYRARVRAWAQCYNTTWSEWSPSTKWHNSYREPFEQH
Description: ELISA, coated sIL-4Rα, culture supernatant. As for the experimental part:
100 μl of 100 μg/ml sIL-4Rα solution was added to 9.90 ml of PBS, mixed up and down, and then an antigen coating buffer of 1.0 μg/ml was obtained. The prepared antigen coating buffer was added to a 96-well ELISA plate (Corning) with a volume of 100 μl per well. The 96-well ELISA plate was incubated overnight in a refrigerator at 4° C. On the next day; the solution therein was discarded; and PBS containing 2% BSA was added to the 96-well ELISA plate row by row with a volume of 300 μl per well. The 96-well ELISA plate was incubated for 2 hours in a refrigerator at 4° C., Then the PBS containing 2% BSA was discarded and the plate was washed 3 times with PBST. Diluted antibodies to be tested were sequentially added to the corresponding wells, while the normal cell culture supernatants, as negative control samples, were added too. Three duplicate wells were made for each sample with a volume of 100 μl per well. The ELISA plate was wrapped with preservative film (or covered) and incubated for 1 h at […] in a constant temperature incubator. Subsequently, the 96-well ELISA plate was taken out, and the solution therein was discarded. After washing with PBST for 3 times, TMB solution (Solarbio, Catalog Number: PR1200) was added to the 96-well ELISA plate row by row with a volume of 100 μl per well. The 96-well ELISA plate was placed at room temperature for 5 minutes, and 2 M H2SO4 solution was added in immediately to terminate the reaction. The 96-well ELISA plate was placed in flexstation 3 (Molecular Devices), the values of OD450 were read, and the data were collected, calculated and analyzed. Results were expressed relative to the affinity of control antibody 1.
For orientation: ELISA stands for enzyme-linked immunosorbent assay.

B1: L1000H1007 (antibody, V domains shown)
VH: EVQLVQSGGGLVHPGGSLRLSCAGSGFTFSRNAMFWVRQAPGKGLEWVSGIGTGGATSYADSVKGRFTISRDNAKNSLYLQMNSLRAEDMAVYYCARGRYYFDYWGQGTLVTVSS
VL: not shown
notes: human kappa
Consider B1, for which the “OD 450/OD450Control antibody 1” value was 0.37.

B2: L1000H1024 (antibody, V domains shown)
VH: EVQLVQSGGGLVQPGGSLRLSCAGSGFTFSRNAMFWVRQAPGKGLEWVSGIGTGGATSYADSVKGRFTISRDNAKNSLYLQMNSLRAEDTAVYYCARGRYYFPWWGQGTLVTVSS
VL: not shown
notes: human kappa
Take B2: the “OD 450/OD450Control antibody 1” value was 0.26.

B3: L1000H1022 (antibody, V domains shown)
VH: EVQLVQSGGGLVHPGGSLRLSCAGSGFTFSRNAMFWVRQAPGKGLEWVSGIGTGGATSYADSVKGRFTISRDNAKNSLYLQMNSLRAEDTAVYYCARGRYYFPWWGQGTLVTVSS
VL: not shown
notes: human kappa
In the case of B3, the “OD 450/OD450Control antibody 1” value is 0.18.

B4: L1000H1021 (antibody, V domains shown)
VH: EVQLVQSGGGLVHPGGSLRLSCAGSGFTFSRNAMFWVRQAPGKGLEWVSGIGTGGATNYADSVKGRFTISRDNAKNSLYLQMNSLRAEDTAVYYCARGRYYFPWWGQGTLVTVSS
VL: not shown
notes: human kappa
B4: the “OD 450/OD450Control antibody 1” value turned out to be 0.35.

B5: L1000H1036 (antibody, V domains shown)
VH: EVQLVQSGGGLVHPGGSLRLSCAGSGFTFSRNAMFWVRQAPGEGLEWVSGIGTGGATNYADSVKGRFTISRDNAKNSLYLQMNSLRAEDMAVYYCARGRYYFDYWGQGTLVTVSS
VL: not shown
notes: human kappa
Turning to B5, the “OD 450/OD450Control antibody 1” value is 0.1.

B6: L1000H1010 (antibody, V domains shown)
VH: EVQLVQSGGGLVQPGGSLRLSCAGSGFTFSRNAMFWVRQAPGKGLEWVSGIGTGGATNYADSVKGRFTISRDNAKNSLYLQMNSLRAEDMAVYYCARGRYYFDYWGQGTLVTVSS
VL: not shown
notes: human kappa
In the case of B6, the “OD 450/OD450Control antibody 1” value came to 0.11.

B7: L1000H1008 (antibody, V domains shown)
VH: EVQLVQSGGGLVHPGGSLRLSCAGSGFTFSRNAMFWVRQAPGKGLEWVSGIGTGGATNYADSVKGRFTISRDNAKNSLYLQMNSLRAEDTAVYYCARGRYYFDYWGQGTLVTVSS
VL: not shown
notes: human kappa
B7: the “OD 450/OD450Control antibody 1” value worked out at 0.21.

B8: L1000H1025 (antibody, V domains shown)
VH: EVQLVQSGGGLVHPGGSLRLSCAASGFTFSRNAMFWVRQAPGKGLEWVSGIGTGGATSYADSVKGRFTISRDNAKNSLYLQMNSLRAEDTAVYYCARGRYYFPWWGQGTLVTVSS
VL: not shown
notes: human kappa
B8: the “OD 450/OD450Control antibody 1” value came to 0.21.

B9: L1011H1000 (antibody, V domains shown)
VH: EVQLVQSGGGLVHPGGSLRLSCAGSGFTFSRNAMFWVRQAPGKGLEWVSGIGTGGATNYADSVKGRFTISRDNAKNSLYLQMNSLRAEDMAVYYCARGRYYFDYWGQGTLVTVSS
VL: EIVLTQSPGTLSLSPGERATLSCRASQSVSNSYLAWYQQKPGQAPRLLIFGASSRAPGIPDRFSGSGSGTDFTLTISRLEPEDFAVYYCQQYGSSPPWTFGQGTKVEIK
notes: human kappa
For B9, the “OD 450/OD450Control antibody 1” value amounted to 0.9.

B10: L1008H1000 (antibody, V domains shown)
VH: EVQLVQSGGGLVHPGGSLRLSCAGSGFTFSRNAMFWVRQAPGKGLEWVSGIGTGGATNYADSVKGRFTISRDNAKNSLYLQMNSLRAEDMAVYYCARGRYYFDYWGQGTLVTVSS
VL: not shown
notes: human kappa
Turning to B10, the “OD 450/OD450Control antibody 1” value stood at 0.9.

B11: L1000H1031 (antibody, V domains shown)
VH: EVQLVESGGGLVQPGGSLRLSCAASGFTFSRNAMFWVRQAPGKGLEWVSGIGTGGATSYADSVKGRFTISRDNAKNSLYLQMNSLRAEDTAVYYCARGRYYFDYWGQGTLVTVSS
VL: not shown
notes: human kappa
With B11, the “OD 450/OD450Control antibody 1” value was determined as 1.14.

B12: L1000H1026 (antibody, V domains shown)
VH: EVQLVESGGGLVQPGGSLRLSCAGSGFTFSRNAMFWVRQAPGKGLEWVSGIGTGGATSYADSVKGRFTISRDNAKNSLYLQMNSLRAEDTAVYYCARGRYYFPWWGQGTLVTVSS
VL: not shown
notes: human kappa
For the molecule B12, the “OD 450/OD450Control antibody 1” value was found to be 0.11.

B13: L1000H1013 (antibody, V domains shown)
VH: EVQLVESGGGLVHPGGSLRLSCAASGFTFSRNAMFWVRQAPGKGLEWVSGIGTGGATNYADSVKGRFTISRDNAKNSLYLQMNSLRAEDMAVYYCARGRYYFDYWGQGTLVTVSS
VL: not shown
notes: human kappa
In the case of B13, the “OD 450/OD450Control antibody 1” value came to 0.38.

B14: L1000H1037 (antibody, V domains shown)
VH: EVQLVQSGGGLVHPGGSLRLSCAGSGFTFSRNAMFWVRQAPGKGLEWVSGIGTGGATNYADSVKGRFTISRDEAKNSLYLQMNSLRAEDMAVYYCARGRYYFDYWGQGTLVTVSS
VL: not shown
notes: human kappa
As to B14, the “OD 450/OD450Control antibody 1” value was -0.01.

B15: L1000H1030 (antibody, V domains shown)
VH: EVQLVESGGGLVQPGGSLRLSCAASGFTFSRNAMFWVRQAPGKGLEWVSGIGTGGATNYADSVKGRFTISRDNAKNSLYLQMNSLRAEDTAVYYCARGRYYFPWWGQGTLVTVSS
VL: not shown
notes: human kappa
On to B15, for which the “OD 450/OD450Control antibody 1” value was 0.2.

B16: L1000H1020 (antibody, V domains shown)
VH: EVQLVQSGGGLVHPGGSLRLSCAGSGFTFSRNAMFWVRQAPGKGLEWVSGIGTGGATSYADSVKGRFTISRDNAKNSLYLQMNSLRAEDMAVYYCARGRYYFPWWGQGTLVTVSS
VL: not shown
notes: human kappa
B16: the “OD 450/OD450Control antibody 1” value is 0.23.

B17: L1000H1012 (antibody, V domains shown)
VH: EVQLVQSGGGLVHPGGSLRLSCAGSGFTFSRNAMFWVRQAPGKGLEWVSGIGTGGATSYADSVKGRFTISRDNAKNSLYLQMNSLRAEDTAVYYCARGRYYFDYWGQGTLVTVSS
VL: not shown
notes: human kappa
As for B17, the “OD 450/OD450Control antibody 1” value was 0.18.

B18: L1010H1000 (antibody, V domains shown)
VH: EVQLVQSGGGLVHPGGSLRLSCAGSGFTFSRNAMFWVRQAPGKGLEWVSGIGTGGATNYADSVKGRFTISRDNAKNSLYLQMNSLRAEDMAVYYCARGRYYFDYWGQGTLVTVSS
VL: not shown
notes: human kappa
As for B18, the “OD 450/OD450Control antibody 1” value stood at 1.

B19: L1000H1027 (antibody, V domains shown)
VH: EVQLVESGGGLVHPGGSLRLSCAASGFTFSRNAMFWVRQAPGKGLEWVSGIGTGGATSYADSVKGRFTISRDNAKNSLYLQMNSLRAEDTAVYYCARGRYYFPWWGQGTLVTVSS
VL: not shown
notes: human kappa
As to B19, the “OD 450/OD450Control antibody 1” value stood at 0.44.

B20: L1000H1028 (antibody, V domains shown)
VH: EVQLVQSGGGLVQPGGSLRLSCAASGFTFSRNAMFWVRQAPGKGLEWVSGIGTGGATSYADSVKGRFTISRDNAKNSLYLQMNSLRAEDTAVYYCARGRYYFPWWGQGTLVTVSS
VL: not shown
notes: human kappa
As to B20, the “OD 450/OD450Control antibody 1” value turned out to be 0.33.

B21: L1000H1035 (antibody, V domains shown)
VH: EVQLVQSGGGLVHPGGSLRLSCAGSGFTFSRNAMHWVRQAPGKGLEWVSGIGTGGATNYADSVKGRFTISRDNAKNSLYLQMNSLRAEDMAVYYCARGRYYFDYWGQGTLVTVSS
VL: not shown
notes: human kappa
As for B21, the “OD 450/OD450Control antibody 1” value is 0.22.

B22: L1007H1000 (antibody, V domains shown)
VH: EVQLVQSGGGLVHPGGSLRLSCAGSGFTFSRNAMFWVRQAPGKGLEWVSGIGTGGATNYADSVKGRFTISRDNAKNSLYLQMNSLRAEDMAVYYCARGRYYFDYWGQGTLVTVSS
VL: not shown
notes: human kappa
For the molecule B22, the “OD 450/OD450Control antibody 1” value came to 0.8.

B23: L1000H1029 (antibody, V domains shown)
VH: EVQLVESGGGLVQPGGSLRLSCAASGFTFSRNAMFWVRQAPGKGLEWVSGIGTGGATSYADSVKGRFTISRDNAKNSLYLQMNSLRAEDMAVYYCARGRYYFPWWGQGTLVTVSS
VL: not shown
notes: human kappa
Turning to B23, the “OD 450/OD450Control antibody 1” value amounted to 0.8.
